Laboratory results taken from paper PMC10663500, “High-throughput analysis system of interaction kinetics for data-driven antibody design” (Scientific Reports, 2023).

B1: toripalimab Fab H.V114A (Fab, V domains shown)
VH: QGQLVQSGAEVKKPGASVKVSCKASGYTFTDYEMHWVRQAPIHGLEWIGVIESETGGTAYNQKFKGRVTITADKSTSTAYMELSSLRSEDTAVYYCAREGITTVATTYYWYFDAWGQGTTVTVSS
VL: DVVMTQSPLSLPVTLGQPASISCRSSQSIVHSNGNTYLEWYLQKPGQSPQLLIYKVSNRFSGVPDRFSGSGSGTDFTLKISRVEAEDVGVYYCFQGSHVPLTFGQGTKLEIK
notes: heavy chain of Sm3 with this change; numbers count from the chain's first residue; as the light chain of Sm3; source: Brevibacillus, culture supernatant (ammonium sulfate precipitate); not shown: 6xHis, C-terminal, kept; 6xHN, C-terminal, kept
B2: toripalimab Fab L.I29A (Fab, V domains shown)
VH: QGQLVQSGAEVKKPGASVKVSCKASGYTFTDYEMHWVRQAPIHGLEWIGVIESETGGTAYNQKFKGRVTITADKSTSTAYMELSSLRSEDTAVYYCAREGITTVATTYYWYFDVWGQGTTVTVSS
VL: DVVMTQSPLSLPVTLGQPASISCRSSQSAVHSNGNTYLEWYLQKPGQSPQLLIYKVSNRFSGVPDRFSGSGSGTDFTLKISRVEAEDVGVYYCFQGSHVPLTFGQGTKLEIK
notes: as the heavy chain of Sm3; light chain of Sm3 with this change; numbers count from the chain's first residue; source: Brevibacillus, culture supernatant (ammonium sulfate precipitate); not shown: 6xHis, C-terminal, kept; 6xHN, C-terminal, kept
B3: toripalimab Fab L.S28Y (Fab, V domains shown)
VH: QGQLVQSGAEVKKPGASVKVSCKASGYTFTDYEMHWVRQAPIHGLEWIGVIESETGGTAYNQKFKGRVTITADKSTSTAYMELSSLRSEDTAVYYCAREGITTVATTYYWYFDVWGQGTTVTVSS
VL: DVVMTQSPLSLPVTLGQPASISCRSSQYIVHSNGNTYLEWYLQKPGQSPQLLIYKVSNRFSGVPDRFSGSGSGTDFTLKISRVEAEDVGVYYCFQGSHVPLTFGQGTKLEIK
notes: as for B2
B4: toripalimab Fab L.S25Y (Fab, V domains shown)
VH: QGQLVQSGAEVKKPGASVKVSCKASGYTFTDYEMHWVRQAPIHGLEWIGVIESETGGTAYNQKFKGRVTITADKSTSTAYMELSSLRSEDTAVYYCAREGITTVATTYYWYFDVWGQGTTVTVSS
VL: DVVMTQSPLSLPVTLGQPASISCRYSQSIVHSNGNTYLEWYLQKPGQSPQLLIYKVSNRFSGVPDRFSGSGSGTDFTLKISRVEAEDVGVYYCFQGSHVPLTFGQGTKLEIK
notes: as for B2
B5: toripalimab Fab H.V114Y (Fab, V domains shown)
VH: QGQLVQSGAEVKKPGASVKVSCKASGYTFTDYEMHWVRQAPIHGLEWIGVIESETGGTAYNQKFKGRVTITADKSTSTAYMELSSLRSEDTAVYYCAREGITTVATTYYWYFDYWGQGTTVTVSS
VL: DVVMTQSPLSLPVTLGQPASISCRSSQSIVHSNGNTYLEWYLQKPGQSPQLLIYKVSNRFSGVPDRFSGSGSGTDFTLKISRVEAEDVGVYYCFQGSHVPLTFGQGTKLEIK
notes: as for B1
B6: toripalimab Fab L.Q27Y (Fab, V domains shown)
VH: QGQLVQSGAEVKKPGASVKVSCKASGYTFTDYEMHWVRQAPIHGLEWIGVIESETGGTAYNQKFKGRVTITADKSTSTAYMELSSLRSEDTAVYYCAREGITTVATTYYWYFDVWGQGTTVTVSS
VL: DVVMTQSPLSLPVTLGQPASISCRSSYSIVHSNGNTYLEWYLQKPGQSPQLLIYKVSNRFSGVPDRFSGSGSGTDFTLKISRVEAEDVGVYYCFQGSHVPLTFGQGTKLEIK
notes: as for B2
B7: toripalimab Fab L.I29Y (Fab, V domains shown)
VH: QGQLVQSGAEVKKPGASVKVSCKASGYTFTDYEMHWVRQAPIHGLEWIGVIESETGGTAYNQKFKGRVTITADKSTSTAYMELSSLRSEDTAVYYCAREGITTVATTYYWYFDVWGQGTTVTVSS
VL: DVVMTQSPLSLPVTLGQPASISCRSSQSYVHSNGNTYLEWYLQKPGQSPQLLIYKVSNRFSGVPDRFSGSGSGTDFTLKISRVEAEDVGVYYCFQGSHVPLTFGQGTKLEIK
notes: as for B2
B8: toripalimab Fab L.S26A (Fab, V domains shown)
VH: QGQLVQSGAEVKKPGASVKVSCKASGYTFTDYEMHWVRQAPIHGLEWIGVIESETGGTAYNQKFKGRVTITADKSTSTAYMELSSLRSEDTAVYYCAREGITTVATTYYWYFDVWGQGTTVTVSS
VL: DVVMTQSPLSLPVTLGQPASISCRSAQSIVHSNGNTYLEWYLQKPGQSPQLLIYKVSNRFSGVPDRFSGSGSGTDFTLKISRVEAEDVGVYYCFQGSHVPLTFGQGTKLEIK
notes: as for B2
B9: toripalimab Fab L.S26Y (Fab, V domains shown)
VH: QGQLVQSGAEVKKPGASVKVSCKASGYTFTDYEMHWVRQAPIHGLEWIGVIESETGGTAYNQKFKGRVTITADKSTSTAYMELSSLRSEDTAVYYCAREGITTVATTYYWYFDVWGQGTTVTVSS
VL: DVVMTQSPLSLPVTLGQPASISCRSYQSIVHSNGNTYLEWYLQKPGQSPQLLIYKVSNRFSGVPDRFSGSGSGTDFTLKISRVEAEDVGVYYCFQGSHVPLTFGQGTKLEIK
notes: as for B2
B10: toripalimab Fab L.R24A (Fab, V domains shown)
VH: QGQLVQSGAEVKKPGASVKVSCKASGYTFTDYEMHWVRQAPIHGLEWIGVIESETGGTAYNQKFKGRVTITADKSTSTAYMELSSLRSEDTAVYYCAREGITTVATTYYWYFDVWGQGTTVTVSS
VL: DVVMTQSPLSLPVTLGQPASISCASSQSIVHSNGNTYLEWYLQKPGQSPQLLIYKVSNRFSGVPDRFSGSGSGTDFTLKISRVEAEDVGVYYCFQGSHVPLTFGQGTKLEIK
notes: as for B2
B11: toripalimab Fab L.S28A (Fab, V domains shown)
VH: QGQLVQSGAEVKKPGASVKVSCKASGYTFTDYEMHWVRQAPIHGLEWIGVIESETGGTAYNQKFKGRVTITADKSTSTAYMELSSLRSEDTAVYYCAREGITTVATTYYWYFDVWGQGTTVTVSS
VL: DVVMTQSPLSLPVTLGQPASISCRSSQAIVHSNGNTYLEWYLQKPGQSPQLLIYKVSNRFSGVPDRFSGSGSGTDFTLKISRVEAEDVGVYYCFQGSHVPLTFGQGTKLEIK
notes: as for B2
B12: toripalimab Fab L.Q27A (Fab, V domains shown)
VH: QGQLVQSGAEVKKPGASVKVSCKASGYTFTDYEMHWVRQAPIHGLEWIGVIESETGGTAYNQKFKGRVTITADKSTSTAYMELSSLRSEDTAVYYCAREGITTVATTYYWYFDVWGQGTTVTVSS
VL: DVVMTQSPLSLPVTLGQPASISCRSSASIVHSNGNTYLEWYLQKPGQSPQLLIYKVSNRFSGVPDRFSGSGSGTDFTLKISRVEAEDVGVYYCFQGSHVPLTFGQGTKLEIK
notes: as for B2
B13: toripalimab Fab L.S25A (Fab, V domains shown)
VH: QGQLVQSGAEVKKPGASVKVSCKASGYTFTDYEMHWVRQAPIHGLEWIGVIESETGGTAYNQKFKGRVTITADKSTSTAYMELSSLRSEDTAVYYCAREGITTVATTYYWYFDVWGQGTTVTVSS
VL: DVVMTQSPLSLPVTLGQPASISCRASQSIVHSNGNTYLEWYLQKPGQSPQLLIYKVSNRFSGVPDRFSGSGSGTDFTLKISRVEAEDVGVYYCFQGSHVPLTFGQGTKLEIK
notes: as for B2
B14: toripalimab Fab H.M34Y (Fab, V domains shown)
VH: QGQLVQSGAEVKKPGASVKVSCKASGYTFTDYEYHWVRQAPIHGLEWIGVIESETGGTAYNQKFKGRVTITADKSTSTAYMELSSLRSEDTAVYYCAREGITTVATTYYWYFDVWGQGTTVTVSS
VL: DVVMTQSPLSLPVTLGQPASISCRSSQSIVHSNGNTYLEWYLQKPGQSPQLLIYKVSNRFSGVPDRFSGSGSGTDFTLKISRVEAEDVGVYYCFQGSHVPLTFGQGTKLEIK
notes: as for B1
B15: toripalimab Fab L.R24Y (Fab, V domains shown)
VH: QGQLVQSGAEVKKPGASVKVSCKASGYTFTDYEMHWVRQAPIHGLEWIGVIESETGGTAYNQKFKGRVTITADKSTSTAYMELSSLRSEDTAVYYCAREGITTVATTYYWYFDVWGQGTTVTVSS
VL: DVVMTQSPLSLPVTLGQPASISCYSSQSIVHSNGNTYLEWYLQKPGQSPQLLIYKVSNRFSGVPDRFSGSGSGTDFTLKISRVEAEDVGVYYCFQGSHVPLTFGQGTKLEIK
notes: as for B2

Legend:
[1] = target: T1, human programmed cell death protein 1 (hPD-1) C93S (aa 24-167) (Homo sapiens, UniProt Q15116, C93S); test: SPR; Carterra LSA; Fab from the ammonium sulfate precipitate of the culture supernatant immobilised on a NiHC200M chip; hPD-1 (1-1024 nM) or mPD-1-Fc (4-1024 nM) as analyte, fourfold dilution series, no regeneration; HBS-EP pH 7.4, 25 °C; medians over the spots of a construct, KD = koff/kon; conditions: one partner purified
T1 construct: made as a fusion with a TEV site and human Fc; the Fc was cut off with TEV protease; source: Expi293F, purified (Protein A, TEV cleavage of Fc, SEC; monomer fractions); not shown: Fc (human), C-terminal, cleaved
T1 sequence (Q15116 24-167 C93S): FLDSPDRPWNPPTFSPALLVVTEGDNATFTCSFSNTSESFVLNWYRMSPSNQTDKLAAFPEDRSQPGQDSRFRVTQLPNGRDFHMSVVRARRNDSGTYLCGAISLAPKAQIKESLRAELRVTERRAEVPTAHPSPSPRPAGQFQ
How it was run: (§1)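 Fabs, ammonium sulfate-precipitated from Brevibacillus supernatants and redissolved in HBS-EP, were captured in duplicate on a NiHC200M chip on a Carterra LSA at 25 °C. Fourfold series of human PD-1 (1–1024 nM) or mouse PD-1-Fc (4–1024 nM) were run without regeneration, with association for 10 min and dissociation for 5 min. Rates were fitted with the kdka model, choosing the better of slow- or fast-dissociation settings, and unconfirmed binders were given kon 10^3 […] and koff 10^−2 s^−1. The dissociation constant KD is koff/kon based on per-construct medians.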

[2] = target: T2, mouse programmed cell death protein 1 Fc fusion protein (mPD-1-Fc), mPD-1 C60S (aa 25-167) (Mus musculus, UniProt Q02242, stabilised); test: as above; conditions: one partner purified
T2 construct: not cleaved; source: Expi293F, purified (Protein A, SEC; dimeric fraction); not shown: Fc (human), C-terminal, kept
How it was run: as §1

Binder	Kd [1] [nM]	koff [1] [s⁻¹]	kon [1] [M⁻¹ s⁻¹]	Kd [2] [nM]	koff [2] [s⁻¹]	kon [2] [M⁻¹ s⁻¹]
B1	< 1.5	< 1e-05	6670	201	0.00764	38100
B2	< 0.466	< 1e-05	21500	64	0.00268	41800
B3	< 0.792	< 1e-05	12600	137	0.00438	31900
B4	1.93	1.18e-05	6090	125	0.00412	32900
B5	1.23	2.39e-05	19400	235	0.00887	37800
B6	< 0.342	< 1e-05	29200	216	0.0122	56500
B7	30.4	0.000378	12400	80.6	0.00575	71400
B8	0.802	1.95e-05	24300	75	0.00379	50500
B9	< 0.573	< 1e-05	17500	152	0.00675	44500
B10	< 0.696	< 1e-05	14400	198	0.0079	39900
B11	< 0.632	< 1e-05	15800	96.3	0.00303	31400
B12	< 0.831	< 1e-05	12000	219	0.00876	40100
B13	< 0.503	< 1e-05	19900	65.2	0.00369	56600
B14	< 0.414	< 1e-05	24200	164	0.00793	48500
B15	< 1.44	< 1e-05	6930	133	0.0047	35400
